Test results reported in patent publication US20230295347A1 (published 2023).

Legend:
[1] = target: T1, cysteine-rich domain (CRD) of human Fzd4 (UniProt Q9ULV1 40-161); assay: BLI
T1 chain: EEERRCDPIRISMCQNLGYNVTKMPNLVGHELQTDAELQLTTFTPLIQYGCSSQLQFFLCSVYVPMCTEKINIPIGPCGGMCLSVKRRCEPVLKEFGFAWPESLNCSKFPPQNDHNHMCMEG

[2] = target: T1, cysteine-rich domain (CRD) of human Fzd4; assay: SPR; apparent KD, average of four capture concentrations

B1: 4SD1-03_LALAPG (bispecific antibody)
heavy: EVQLVESGGGLVKPGGSLRLSCAASGFTFTNYAMSWVRQAPGKGLEWVSAISGSGGSTYYADSVKGRFTISRDDSKNTLYLQMNSLKTEDTAVYYCARATGFGTVVFDYWGQGTLVTVSSASTKGPSVFPLAPSSKSTSGGTAALGCLVKDYFPEPVTVSWNSGALTSGVHTFPAVLQSSGLYSLSSVVTVPSSSLGTQTYICNVNHKPSNTKVDKKVEPKSCDKTHTCPPCPAPEAAGGPSVFLFPPKPKDTLMISRTPEVTCVVVDVSHEDPEVKFNWYVDGVEVHNAKTKPREEQYNSTYRVVSVLTVLHQDWLNGKEYKCKVSNKALGAPIEKTISKAKGQPREPQVYTLPPSREEMTKNQVSLTCLVKGFYPSDIAVEWESNGQPENNYKTTPPVLDSDGSFFLYSKLTVDKSRWQQGNVFSCSVMHEALHNHYTQKSLSLSPGK
light: not shown
- Kd [1]: 44.7 nM
- Kd [2]: 729 nM
